# In IntAct's records for PubMed 30260988:
# B1: CXXC motif containing zinc binding protein (Homo sapiens), Q9NWV4 (parent)
# chain: MGKIALQLKATLENITNLRPVGEDFRWYLKMKCGNCGEISDKWQYIRLMDSVALKGGRGSASMVQKCKLCARENSIEILSSTIKPYNAEDNENFKTIVEFECRGLEPVDFQPQAGFAAEGVESGTAFSDINLQEKDWTDYDEKAQESVGIYEVTHQFVKC
# partner: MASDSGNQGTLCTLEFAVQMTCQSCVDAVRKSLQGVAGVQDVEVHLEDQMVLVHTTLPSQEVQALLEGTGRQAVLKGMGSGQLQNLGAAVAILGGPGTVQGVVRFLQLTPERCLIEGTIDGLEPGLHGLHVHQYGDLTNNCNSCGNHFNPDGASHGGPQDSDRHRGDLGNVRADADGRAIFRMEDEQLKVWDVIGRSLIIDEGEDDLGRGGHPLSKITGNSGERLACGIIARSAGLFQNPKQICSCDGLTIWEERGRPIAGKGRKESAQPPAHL
# What was measured:
# [1] = variants of: B1; settings: with ccs_human CCS
# [2] = variants of: B1; settings: with ccs_human CCS; remark: listed apart in the source
Variant,effect of a mutation on the interaction [1],effect of a mutation on the interaction [2]
C33A;C36A,with no effect,causing an interaction
C67A;C70A,disrupting interaction strength,causing an interaction
